Measured values from patent US20140050743A1, “BINDING PROTEINS TO INHIBITORS OF COAGULATION FACTORS” (BAYER INTELLECTUAL PROPERTY GMBH, priority 2011, published 2014).

Legend:
[1] = system: rivaroxaban (prothrombin time); assay: Reversal of rivaroxaban's effect on prothrombin time (PT) in vitro, rat plasma; type: biochemical
Method: (§1) Citrated blood (0.11 M Na-citrate/blood, 1:9 v/v) was obtained from human donors by venipuncture or from anesthetized Wistar rats (Charles River) by aortic cannulation and centrifuged at 4000 g for 15 minutes for separation of platelet-poor plasma. […] Antidote was added to the Plasma-rivaroxaban mixture and incubated for another 10 minutes at room temperature. The PT assay was run using Recombiplastin (Instrumentation Laboratory) as tissue factor source on an AMAX 200 automated coagulometer (Trinity Biotech) according to manufacturer's instructions. The composition of the final assay volume is ⅓ plasma and ⅔ PT reagent. […] Data are given as means±sem from 5 experiments and represent final assay concentrations (Table 8 and FIGS. 7 and 8).

[2] = system: rivaroxaban (prothrombin time); assay: Reversal of rivaroxaban's effect on prothrombin time (PT) in vitro, human plasma; type: biochemical
Method: as §1

[3] = system: rivaroxaban induced FXa inhibition; assay: Functional neutralization of rivaroxaban in a biochemical Factor Xa activity assay; settings: Table 6, 0.05 nM FXa, 0.6 nM rivaroxaban
Method: Serial dilutions of test compounds in assay buffer (50 mM HEPES pH 7.8, 250 mM NaCl, 6 mM CaCl2, 0.01% Brij35, 1 mM glutathione, 4 mM EDTA, 0.05% bovine serum albumin) were performed (typical concentrations ranging from 5 μM to 0.0007 μM).
20 μL of the diluted test compounds were placed in 384 well microtiter plates (Greiner, Frickenhausen, Germany), followed by the addition of 10 μL of a 1:400 dilution (250 μM) of the FXa substrate Pefafluor Xa (100 mM in DMSO, Loxo, Dossenheim, Germany) in assay buffer. […] Simultaneously, control reactions without rivaroxaban were started.
During incubation at 32° C., reaction progress curves were monitored using a fluorescence microtiter plate reader (e.g Tecan Ultra Evolution, Tecan Group Ltd., Mannedorf, Switzerland; excitation 360 nm, emission 465 nm).
The dilution of FXa was chosen that in the control reactions the reaction kinetics was linear, and less than 50% of the substrate was consumed (typical final FXa concentration in the assay: 0.05 nM). […] Results are depicted in FIG. 1.

[4] = Affinity by surface plasmon resonance (Biacore), immobilized Fab, analyte rivaroxaban; type: binding; settings: Table 6, immobilized Fabs, SPR (Biacore)
Excerpt: “Binding affinity” refers to the strength of the sum total of noncovalent interactions between a single binding site of a molecule and its binding partner. Unless indicated otherwise, as used herein, “binding affinity” refers to intrinsic binding affinity which reflects a 1:1 interaction between members of a binding pair (e.g. an antibody and an antigen). The dissociation constant “KD” is commonly used to describe the affinity between a molecule (such as an antibody) and its binding partner (such as an antigen) i.e. how tightly a ligand binds to a particular protein. Ligand-protein affinities are influenced by non-covalent intermolecular interactions between the two molecules Affinity can be measured by common methods known in the art, including those described herein. In one embodiment, the “KD” or “KD value” according to this invention is measured by using surface plasmon resonance assays using a Biacore T100 instrument (GE Healthcare Biacore, Inc.) according to Example 5. The dissociation equilibrium constant (KD) was calculated based on the ratio of association (kon) and dissociation rated (koff) constants, obtained by fitting sensograms with a first order 1:1 binding model using Biacore Evaluation Software. Other suitable devices are BIACORE(R)-2000, a BIACORE (R)-3000 (BIAcore, Inc., Piscataway, N.J.), or ProteOn XPR36 instrument (Bio-Rad Laboratories, Inc.).
Binding affinities of Fab-fragments were determined by surface plasmon resonance analysis on a Biacore T100 instrument (GE Healthcare Biacore, Inc.). Fab fragments were diluted to a final concentration of 10 μg/ml in 10 mM sodium acetate, pH 4.5, and immobilized on a CM5 chip (GE Healthcare Biacore, Inc.) at levels of 3000-5000RU by amine-coupling chemistry for flow cells 2, 3 and 4, respectively. Flow cell 1 was used as a reference. […] Sensograms were generated after in-line reference cell correction followed by buffer sample subtraction. The dissociation equilibrium constant (KD) was calculated based on the ratio of association and dissociation rated constants, obtained by fitting sensograms with a first order 1:1 binding model using BiaEvaluation Software.

[5] = ELISA-based activity assay of antibody variants with a competition step (300 nM rivaroxaban); type: binding; set-up: key: ++: Variants with an average ratio above wt plus 2×SD (standard deviation of the ratio) were considered as improved; −: variants with a ratio below wt minus 2×SD were considered as reduced in their binding affinity; +/−: All variants with a performance in between both thresholds; −−: Variants with average fluorescence counts below the negative control (non-expressing cells) plus 3×SD were considered as non-binding; settings: Table 11: single and double amino acid substitutions within M18-G08, variant to wt ratio, 1-3 independent experiments
Method: To determine the activity of the mutated antibody variants on compound from Example 1K an equilibrium or dissociation limited ELISA assay format was used. Briefly, MTP plates (Nunc Maxisorp black, 460518) were coated with 4 μg/ml streptavidin (Calbiochem, 189730) diluted in coating buffer (Candor Bioscience GmbH, 121500) and incubated over night at 4° C. After washing with PBST, plates were blocked with 100% Smart Block (Candor Bioscience GmbH, 113500) in PBST for 1 h at room temperature and the washing step was repeated. […] After washing 10 μM Amplex Red (Invitrogen, A12222) were added and incubated for 10 to 30 min at room temperature followed by measurement of the fluorescence signal.
Provided in table 11 are several examples of single and/or double amino acid substitutions introduced into the heavy and/or the light chain of M18-G08 (wt). Performance of the variants was analyzed in quadruples in the ELISA with a competition step and the FXa deinhibition assay (FXa DIA). In the ELISA, averages were calculated and overall performance of variants was evaluated by comparing the variant to wt ratio from 1-3 independent experiments. […] Variants with average fluorescence counts below the negative control (non-expressing cells) plus 3×SD were considered as non-binding and marked with “−−”. […] Variants not analyzed are marked with “nd” (not determined). […]

[6] = system: rivaroxaban (FXa activity); assay: FXa de-inhibition assay (FXa DIA) of Fab variants; type: biochemical; set-up: key: ++: Variants with an average ratio above wt plus 2×SD were considered as improved; −−: variants with a ratio below wt minus 2×SD were considered as either reduced in their binding affinity or non-binding; +/−: All variants with a performance in between both thresholds; settings: Table 11: single and double amino acid substitutions within M18-G08; FXa deinhibition assay; variant/wt ratio, 2-3 independent experiments
Method: Then, 7 μl of 28 nM FXa (Haematologic Technologies Inc., HCXA-0060) diluted in assay buffer (20 mM Tris, Merck 1.08382.2500; 100 mM NaCl, Merck 1.06404.5000; 2.5 mM CaCl2*2H2O, Merck 1.02382.1000; 0.1% bovine serum albumin, Sigma A4503; 0.1% PEG 8000, Sigma P2139) were added and enzyme activity was recorded over time by measuring the fluorescence signal at 440 nm using a micro plate reader e.g. Tecan Infinite F500. The fluorescence signal was integrated over time and ratios of variant to wild-type were compared.
Provided in Table 9 are several examples of single and/or double amino acid substitutions introduced into the heavy and/or the light chain of M14-G07 (wt). Performance of the variants was analyzed in quadruples in the ELISA without a competition step and the FXa deinhibition assay (FXa DIA). In the ELISA, averages were calculated and normalized to the respective average expression level. Overall performance of variants was evaluated by comparing the variant to wt ratio from 2-3 independent experiments. […] Variants with average fluorescence counts below the negative control (non-expressing cells) plus 3×SD were considered as non-binding and marked with “−−” with none of the variants fulfilling this criteria. In the FXa deinhibition assay averages were calculated and overall performance of variants was evaluated by comparing the variant to wt ratio from 2-3 independent experiments. […]

EC50 [3] | Kd [4] | Molecule | ELISA [5] | other results
 |  | O=C(NC[C@H]1CN(c2ccc(N3CCOCC3=O)cc2)C(=O)O1)c1ccc(Cl)s1 [Rivaroxaban, 5-Chloro-N-({(5S)-2-oxo-3-[4-(3-oxo-4-morpholinyl)phenyl]-1,3-oxazolidin-5-yl}-methyl)-2-thiophenecarboxamide, reference compound] |  | PT prolongation by rivaroxaban (x control) ([1]; rivaroxaban 0.4 μM): 1.9 x control; PT prolongation by rivaroxaban (x control) ([1]; rivaroxaban 0.8 μM): 2.6 x control; PT prolongation by rivaroxaban (x control) ([2]; rivaroxaban 0.17 μM): 1.8 x control; PT prolongation by rivaroxaban (x control) ([2]; rivaroxaban 0.33 μM): 2.2 x control
< 1000 nM | < 500 nM | M18-A10: antibody, Vh SEQ ID NO: 215, Vl SEQ ID NO: 216 (antibody, listed as Homo Sapiens, V domains shown) VH: EVQLLESGGGLVQPGGSLRLSCAASGFTFSSYGMSWVRQAPGKGLEWVSGISGSGGSTYYADSVKGRFTISRDNSKNTLYLQMNSLRAEDTAVYYCARDGGYDELDYWGQGTLVTVTS VL: QSVLTQPPSASGTPGQRVTISCTGSSSNIGAGYVVHWYQQLPGTAPKLLIYDNNKRPSGVPDRFSGSKSGTSASLAISGLRSEDEADYYCAAWDDSLSAWVFGGGTKLTVL |  | 
< 2000 nM | < 500 nM | M16-A03: antibody, Vh SEQ ID NO: 211, Vl SEQ ID NO: 212 (antibody, listed as Homo Sapiens, V domains shown) VH: EVQLLESGGGLVQPGGSLRLSCAASGFTFSSYAMSWVRQAPGKGLEWVSGISGSGGSTFYADSVKGRFTISRDNSENTLYLQMNSLRAEDTAVYYCARQTSSGLAGYSYGLDPWGQGTLVTVTS VL: QSVLTQPPSASGTPGQRVTISCTGSSSNIGAGYDVHWYQQLPGTAPKLLIYSNNQRPSGVPDRFSGSKSGTSASLAISGLRSEDEADYYCAGWDDSLSGWVFGGGTKLTVL |  | 
 |  | HC_N31S (antibody, V domains shown) VH: EVQLLESGGGLVQPGGSLRLSCAASGFTFSSAWMSWVRQAPGKGLEWVSYISSSGSTIYYADSVKGRFTISRDNSKNTLYLQMNSLRAEDTAVYYCAREGLWAFDYWGQGTLVTVTS VL: QSVLTQPPSASGTPGQRVTISCTGSSSNIGAGYVVHWYQQLPGTAPKLLIYDNNKRPSGVPDRFSGSKSGTSASLAISGLRSEDEADYYCAAWDDRLNGPVFGGGTKLTVLGQ | +/− | 
 |  | HC_A32Y (antibody, V domains shown) VH: EVQLLESGGGLVQPGGSLRLSCAASGFTFSNYWMSWVRQAPGKGLEWVSYISSSGSTIYYADSVKGRFTISRDNSKNTLYLQMNSLRAEDTAVYYCAREGLWAFDYWGQGTLVTVTS VL: QSVLTQPPSASGTPGQRVTISCTGSSSNIGAGYVVHWYQQLPGTAPKLLIYDNNKRPSGVPDRFSGSKSGTSASLAISGLRSEDEADYYCAAWDDRLNGPVFGGGTKLTVLGQ | ++ | FXa-DIA [6]: ++
